± gives the uncertainty stated by the source.
Assay: abundance fitness (aPCA) (normalised: wild type 0, dead -1); higher = more abundant; growth selection in yeast, the domain comes from the species named
Conditions: Homo sapiens

Substance	abundance fitness
DnaJ homolog subfamily B member 1 K37E, P25685	0.117 ± 0.22
DnaJ homolog subfamily B member 1 K37F, P25685	-0.645 ± 0.17
DnaJ homolog subfamily B member 1 K37G, P25685	-0.319 ± 0.11
DnaJ homolog subfamily B member 1 K37H, P25685	0.05 ± 0.13
DnaJ homolog subfamily B member 1 K37I, P25685	-0.304 ± 0.12
DnaJ homolog subfamily B member 1 K37L, P25685	-0.286 ± 0.061
DnaJ homolog subfamily B member 1 K37M, P25685	-0.41 ± 0.18
DnaJ homolog subfamily B member 1 K37P, P25685	-0.306 ± 0.14
DnaJ homolog subfamily B member 1 K37Q, P25685	-0.2 ± 0.089
DnaJ homolog subfamily B member 1 K37R, P25685	-0.115 ± 0.066
DnaJ homolog subfamily B member 1 K37S, P25685	-0.225 ± 0.065
DnaJ homolog subfamily B member 1 K37T, P25685	-0.228 ± 0.11
DnaJ homolog subfamily B member 1 K37V, P25685	-0.356 ± 0.083
DnaJ homolog subfamily B member 1 K37Y, P25685	-0.277 ± 0.15
DnaJ homolog subfamily B member 1 K44A, P25685	-0.138 ± 0.092
DnaJ homolog subfamily B member 1 K44C, P25685	-0.208 ± 0.14
DnaJ homolog subfamily B member 1 K44D, P25685	-0.356 ± 0.15
DnaJ homolog subfamily B member 1 K44E, P25685	-0.322 ± 0.077
DnaJ homolog subfamily B member 1 K44F, P25685	-0.298 ± 0.12
DnaJ homolog subfamily B member 1 K44G, P25685	-0.39 ± 0.062
DnaJ homolog subfamily B member 1 K44H, P25685	-0.182 ± 0.16
DnaJ homolog subfamily B member 1 K44I, P25685	-0.279 ± 0.2
DnaJ homolog subfamily B member 1 K44L, P25685	-0.144 ± 0.051
DnaJ homolog subfamily B member 1 K44M, P25685	-0.134 ± 0.068
DnaJ homolog subfamily B member 1 K44N, P25685	-0.204 ± 0.13
DnaJ homolog subfamily B member 1 K44P, P25685	-0.717 ± 0.096

Substance	abundance fitness
DnaJ homolog subfamily B member 1 K44Q, P25685	-0.192 ± 0.16
DnaJ homolog subfamily B member 1 K44R, P25685	-0.057 ± 0.084
DnaJ homolog subfamily B member 1 K44W, P25685	-0.315 ± 0.11
DnaJ homolog subfamily B member 1 K44Y, P25685	-0.268 ± 0.1
DnaJ homolog subfamily B member 1 K46A, P25685	-0.277 ± 0.35
DnaJ homolog subfamily B member 1 K46G, P25685	-0.016 ± 0.16
DnaJ homolog subfamily B member 1 K46I, P25685	-0.116 ± 0.15
DnaJ homolog subfamily B member 1 K46L, P25685	-0.639 ± 0.43
DnaJ homolog subfamily B member 1 K46T, P25685	-0.451 ± 0.31
DnaJ homolog subfamily B member 1 K46W, P25685	-0.175 ± 0.31
DnaJ homolog subfamily B member 1 K60A, P25685	-0.172 ± 0.093
DnaJ homolog subfamily B member 1 K60C, P25685	-0.696 ± 0.21
DnaJ homolog subfamily B member 1 K60D, P25685	-0.442 ± 0.13
DnaJ homolog subfamily B member 1 K60E, P25685	-0.159 ± 0.14
DnaJ homolog subfamily B member 1 K60G, P25685	-0.325 ± 0.073
DnaJ homolog subfamily B member 1 K60H, P25685	-0.171 ± 0.082
DnaJ homolog subfamily B member 1 K60I, P25685	-0.654 ± 0.16
DnaJ homolog subfamily B member 1 K60L, P25685	-0.426 ± 0.052
DnaJ homolog subfamily B member 1 K60M, P25685	-0.462 ± 0.11
DnaJ homolog subfamily B member 1 K60N, P25685	-0.311 ± 0.098
DnaJ homolog subfamily B member 1 K60P, P25685	-0.352 ± 0.17
DnaJ homolog subfamily B member 1 K60Q, P25685	-0.128 ± 0.085
DnaJ homolog subfamily B member 1 K60S, P25685	-0.216 ± 0.072
DnaJ homolog subfamily B member 1 K60T, P25685	-0.298 ± 0.09
DnaJ homolog subfamily B member 1 K60V, P25685	-0.706 ± 0.11
DnaJ homolog subfamily B member 1 K60Y, P25685	-0.575 ± 0.29

Substance	abundance fitness
DnaJ homolog subfamily B member 1 L9A, P25685	-0.892 ± 0.26
DnaJ homolog subfamily B member 1 L9C, P25685	-0.823 ± 0.11
DnaJ homolog subfamily B member 1 L9E, P25685	-0.631 ± 0.13
DnaJ homolog subfamily B member 1 L9G, P25685	-0.855 ± 0.074
DnaJ homolog subfamily B member 1 L9H, P25685	-1.12 ± 0.12
DnaJ homolog subfamily B member 1 L9I, P25685	-0.546 ± 0.13
DnaJ homolog subfamily B member 1 L9K, P25685	-1.26 ± 0.23
DnaJ homolog subfamily B member 1 L9M, P25685	-0.412 ± 0.16
DnaJ homolog subfamily B member 1 L9N, P25685	-0.664 ± 0.11
DnaJ homolog subfamily B member 1 L9P, P25685	-0.726 ± 0.082
DnaJ homolog subfamily B member 1 L9Q, P25685	-0.649 ± 0.095
DnaJ homolog subfamily B member 1 L9R, P25685	-1.01 ± 0.095
DnaJ homolog subfamily B member 1 L9S, P25685	-0.681 ± 0.079
DnaJ homolog subfamily B member 1 L9T, P25685	-0.69 ± 0.14
DnaJ homolog subfamily B member 1 L9V, P25685	-0.697 ± 0.17
DnaJ homolog subfamily B member 1 L9W, P25685	-1.25 ± 0.17
DnaJ homolog subfamily B member 1 L9Y, P25685	-0.818 ± 0.11
DnaJ homolog subfamily B member 1 L11A, P25685	-0.147 ± 0.078
DnaJ homolog subfamily B member 1 L11C, P25685	-0.018 ± 0.088
DnaJ homolog subfamily B member 1 L11D, P25685	-0.776 ± 0.16
DnaJ homolog subfamily B member 1 L11E, P25685	-0.5 ± 0.15
DnaJ homolog subfamily B member 1 L11F, P25685	-0.949 ± 0.11
DnaJ homolog subfamily B member 1 L11G, P25685	-0.773 ± 0.071
DnaJ homolog subfamily B member 1 L11H, P25685	-0.795 ± 0.15
DnaJ homolog subfamily B member 1 L11I, P25685	0.015 ± 0.1
DnaJ homolog subfamily B member 1 L11K, P25685	-0.849 ± 0.19

Substance	abundance fitness
DnaJ homolog subfamily B member 1 L11M, P25685	-0.423 ± 0.12
DnaJ homolog subfamily B member 1 L11N, P25685	-0.712 ± 0.12
DnaJ homolog subfamily B member 1 L11P, P25685	-0.759 ± 0.12
DnaJ homolog subfamily B member 1 L11Q, P25685	-0.464 ± 0.14
DnaJ homolog subfamily B member 1 L11R, P25685	-0.96 ± 0.075
DnaJ homolog subfamily B member 1 L11S, P25685	-0.381 ± 0.081
DnaJ homolog subfamily B member 1 L11T, P25685	-0.209 ± 0.11
DnaJ homolog subfamily B member 1 L11V, P25685	-0.041 ± 0.065
DnaJ homolog subfamily B member 1 L11W, P25685	-1.44 ± 0.15
DnaJ homolog subfamily B member 1 L11Y, P25685	-1.1 ± 0.13
DnaJ homolog subfamily B member 1 L29A, P25685	-0.167 ± 0.085
DnaJ homolog subfamily B member 1 L29C, P25685	-0.119 ± 0.086
DnaJ homolog subfamily B member 1 L29D, P25685	-0.089 ± 0.16
DnaJ homolog subfamily B member 1 L29E, P25685	0.067 ± 0.15
DnaJ homolog subfamily B member 1 L29F, P25685	-0.04 ± 0.077
DnaJ homolog subfamily B member 1 L29G, P25685	0.01 ± 0.083
DnaJ homolog subfamily B member 1 L29H, P25685	-0.015 ± 0.12
DnaJ homolog subfamily B member 1 L29I, P25685	0.116 ± 0.12
DnaJ homolog subfamily B member 1 L29K, P25685	-0.116 ± 0.08
DnaJ homolog subfamily B member 1 L29M, P25685	-0.234 ± 0.12
DnaJ homolog subfamily B member 1 L29N, P25685	-0.572 ± 0.3
DnaJ homolog subfamily B member 1 L29P, P25685	-0.461 ± 0.16
DnaJ homolog subfamily B member 1 L29Q, P25685	0.086 ± 0.18
DnaJ homolog subfamily B member 1 L29R, P25685	-0.06 ± 0.077
DnaJ homolog subfamily B member 1 L29S, P25685	-0.138 ± 0.058
DnaJ homolog subfamily B member 1 L29T, P25685	-0.131 ± 0.072
